# Where no end group is shown, it is not given here.
# T1: EGFR-pY1068 phosphopeptide, LPVPE(p)…
# T1 sequence (peptide, phosphotyrosine at (p)Y (residue 6 of the printed peptide; EGFR Tyr1068)): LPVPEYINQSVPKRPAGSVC
# Experiments:
# [1] = target: Grb2 (EST clone IMAGE 4398016), in vitro translated, biotin-labelled (UniProt P62993); assay: competition: immobilized Grb2, +EGFR, un-phosphorylated peptide in solution; bound EGFR detected by its kinase activity on pEY
# [2] = target: BSA (control coating) (UniProt P02769); assay: ECL plate binding assay: BSA control on electrode, biotinylated TnT protein, Sulfo-TAG streptavidin
# [3] = target: Pool A of peptide:BSA conjugates (EGFR-pTyr1148, IkBa-24ppC, Myc-p58Tp62S); assay: ECL 4-spot binding assay with pooled peptide-BSA conjugates, biotinylated TnT protein, Sulfo-TAG streptavidin
# [4] = target: Pool B of peptide:BSA conjugates (EGFR-pTyr992, EGFR-pTyr1148, Smad3C); assay: as above
# [5] = target: Pool C of peptide:BSA conjugates (EGFR-pTyr1068, IkBa-24ppC, Smad3C); assay: as above
# [6] = target: Pool D of peptide:BSA conjugates (EGFR-pTyr992, EGFR-pTyr1068, Myc-p58Tp62S); assay: as above
# [7] = target: T1, EGFR-pY1068 phosphopeptide, LPVPE(p)…; assay: ECL 7-spot plate screen, peptide-BSA spot, biotinylated TnT protein, Ru-streptavidin; signal normalized in two steps
# BSA (control coating), sequence (P02769 25-607 limits assumed): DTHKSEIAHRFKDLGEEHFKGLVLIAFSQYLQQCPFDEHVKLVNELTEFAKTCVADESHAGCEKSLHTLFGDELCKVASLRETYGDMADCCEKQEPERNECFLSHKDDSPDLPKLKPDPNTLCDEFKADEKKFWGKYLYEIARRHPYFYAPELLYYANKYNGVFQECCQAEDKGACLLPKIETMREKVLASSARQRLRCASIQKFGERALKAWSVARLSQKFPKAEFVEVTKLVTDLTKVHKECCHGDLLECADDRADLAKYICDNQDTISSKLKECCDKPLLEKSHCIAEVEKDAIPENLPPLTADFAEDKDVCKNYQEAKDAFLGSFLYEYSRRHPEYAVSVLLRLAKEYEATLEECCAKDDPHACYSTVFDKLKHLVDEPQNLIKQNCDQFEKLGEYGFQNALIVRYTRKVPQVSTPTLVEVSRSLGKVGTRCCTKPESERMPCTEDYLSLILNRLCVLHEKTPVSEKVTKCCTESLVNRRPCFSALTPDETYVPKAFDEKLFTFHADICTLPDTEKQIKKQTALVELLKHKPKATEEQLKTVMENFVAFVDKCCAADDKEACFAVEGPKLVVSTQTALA
ECL signal of EGFR bound to Grb2 in presence of the peptide [1] [ECL signal],Average ECL signal [2] [ECL signal],ECL signal [3] [ECL signal],ECL signal [4] [ECL signal],ECL signal [5] [ECL signal],ECL signal [6] [ECL signal],normalized ECL signal [7],Binder
34100,,,,,,,"LPVPEYINQSVPKRPAGSVC (not fully specified) [un-phosphorylated EGFR 1063-1081 peptide (Peptide, SEQ ID No. 8)]"
,342,239,2780,1550,3390,,"Phospholipase C gamma 1 (PLCγ) (EST clone IMAGE 4419252), in vitro translated, biotin-labelled (enzyme, UniProt P19174 1-1290, looked up, biotin on some lysine residues (incorporated at random from biotin-Lys-tRNA)) MAGAASPCANGCGPGAPSDAEVLHLCRSLEVGTVMTLFYSKKSQRPERKTFQVKLETRQITWSRGADKIEGAIDIREIKEIRPGKTSRDFDRYQEDPAFRPDQSHCFVILYGMEFRLKTLSLQATSEDEVNMWIKGLTWLMEDTLQAPTPLQIERWLRKQFYSVDRNREDRISAKDLKNMLSQVNYRVPNMRFLRERLTDLEQRSGDITYGQFAQLYRSLMYSAQKTMDLPFLEASTLRAGERPELCRVSLPEFQQFLLDYQGELWAVDRLQVQEFMLSFLRDPLREIEEPYFFLDEFVTFLFSKENSVWNSQLDAVCPDTMNNPLSHYWISSSHNTYLTGDQFSSESSLEAYARCLRMGCRCIELDCWDGPDGMPVIYHGHTLTTKIKFSDVLHTIKEHAFVASEYPVILSIEDHCSIAQQRNMAQYFKKVLGDTLLTKPVEISADGLPSPNQLKRKILIKHKKLAEGSAYEEVPTSMMYSENDISNSIKNGILYLEDPVNHEWYPHYFVLTSSKIYYSEETSSDQGNEDEEEPKEVSSSTELHSNEKWFHGKLGAGRDGRHIAERLLTEYCIETGAPDGSFLVRESETFVGDYTLSFWRNGKVQHCRIHSRQDAGTPKFFLTDNLVFDSLYDLITHYQQVPLRCNEFEMRLSEPVPQTNAHESKEWYHASLTRAQAEHMLMRVPRDGAFLVRKRNEPNSYAISFRAEGKIKHCRVQQEGQTVMLGNSEFDSLVDLISYYEKHPLYRKMKLRYPINEEALEKIGTAEPDYGALYEGRNPGFYVEANPMPTFKCAVKALFDYKAQREDELTFIKSAIIQNVEKQEGGWWRGDYGGKKQLWFPSNYVEEMVNPVALEPEREHLDENSPLGDLLRGVLDVPACQIAIRPEGKNNRLFVFSISMASVAHWSLDVAADSQEELQDWVKKIREVAQTADARLTEGKIMERRKKIALELSELVVYCRPVPFDEEKIGTERACYRDMSSFPETKAEKYVNKAKGKKFLQYNRLQLSRIYPKGQRLDSSNYDPLPMWICGSQLVALNFQTPDKPMQMNQALFMTGRHCGYVLQPSTMRDEAFDPFDKSSLRGLEPCAISIEVLGARHLPKNGRGIVCPFVEIEVAGAEYDSTKQKTEFVVDNGLNPVWPAKPFHFQISNPEFAFLRFVVYEEDMFSDQNFLAQATFPVKGLKTGYRAVPLKNNYSEDLELASLLIKIDIFPAKENGDLSPFSGTSLRERGSDASGQLFHGRAREGSFESRYQQPFEDFRISQEHLADHFDSRERRAPRRTRVNGDNRL"
,342,260,318,24,26,,"Shc1 (EST clone IMAGE 3907115), in vitro translated, biotin-labelled (protein, UniProt P29353-2 1-473, looked up, biotin on some lysine residues (incorporated at random from biotin-Lys-tRNA)) MNKLSGGGGRRTRVEGGQLGGEEWTRHGSFVNKPTRGWLHPNDKVMGPGVSYLVRYMGCVEVLQSMRALDFNTRTQVTREAISLVCEAVPGAKGATRRRKPCSRPLSSILGRSNLKFAGMPITLTVSTSSLNLMAADCKQIIANHHMQSISFASGGDPDTAEYVAYVAKDPVNQRACHILECPEGLAQDVISTIGQAFELRFKQYLRNPPKLVTPHDRMAGFDGSAWDEEEEEPPDHQYYNDFPGKEPPLGGVVDMRLREGAAPGAARPTAPNAQTPSHLGATLPVGQPVGGDPEVRKQMPPPPPCPGRELFDDPSYVNVQNLDKARQAVGGAGPPNPAINGSAPRDLFDMKPFEDALRVPPPPQSVSMAEQLRGEPWFHGKLSRREAEALLQLNGDFLVRESTTTPGQYVLTGLQSGQPKHLLLVDPEGVVRTKDHRFESVSHLISYHMDNHLPIISAGSELCLQQPVERKL"
,,,,,,3,"BMX non-receptor tyrosine kinase (EST clone IMAGE 3919253), in vitro translated, biotin-labelled (enzyme, UniProt P51813 1-675, looked up, biotin on some lysine residues (incorporated at random from biotin-Lys-tRNA)) MDTKSILEELLLKRSQQKKKMSPNNYKERLFVLTKTNLSYYEYDKMKRGSRKGSIEIKKIRCVEKVNLEEQTPVERQYPFQIVYKDGLLYVYASNEESRSQWLKALQKEIRGNPHLLVKYHSGFFVDGKFLCCQQSCKAAPGCTLWEAYANLHTAVNEEKHRVPTFPDRVLKIPRAVPVLKMDAPSSSTTLAQYDNESKKNYGSQPPSSSTSLAQYDSNSKKIYGSQPNFNMQYIPREDFPDWWQVRKLKSSSSSEDVASSNQKERNVNHTTSKISWEFPESSSSEEEENLDDYDWFAGNISRSQSEQLLRQKGKEGAFMVRNSSQVGMYTVSLFSKAVNDKKGTVKHYHVHTNAENKLYLAENYCFDSIPKLIHYHQHNSAGMITRLRHPVSTKANKVPDSVSLGNGIWELKREEITLLKELGSGQFGVVQLGKWKGQYDVAVKMIKEGSMSEDEFFQEAQTMMKLSHPKLVKFYGVCSKEYPIYIVTEYISNGCLLNYLRSHGKGLEPSQLLEMCYDVCEGMAFLESHQFIHRDLAARNCLVDRDLCVKVSDFGMTRYVLDDQYVSSVGTKFPVKWSAPEVFHYFKYSSKSDVWAFGILMWEVFSLGKQPYDLYDNSQVVLKVSQGHRLYRPHLASDTIYQIMYSCWHELPEKRPTFQQLLSSIEPLREKDKH"

# Source: patent publication US20030207290A1
